# Reference: patent EP0920630B1
# Biological target: PrPBPs (prion protein binding proteins) on the surface of G8 cells (mouse muscle cell line)
# Experiment: Scatchard analysis, bound AP activity on G8 cells
substance,measurement,value
PrP-AP fusion protein (murine PrP fused to secreted human placental heat-stable alkaline phosphatase) (from UniProt P04925 23-229; P05187 23-511),Kd,1.48 nM
same,PrP-AP binding sites (Bmax) (binding sites),100000
